B1: bitoran V (protein)
chain: CRQNRPDFCYLPAVEGPCRAYIRSFFYNSTSNECEKFFYGGCYGNANKFETRDECRKTCVASA
B2: SBTI: Trypsin inhibitor substance from plant; Kunitz-type trypsin inhibitor from soybean, MW=20.1 kDa, positive control (protein, UniProt P01070 25-205, looked up)
Trypsin inhibitor A: DFVLDNEGNPLENGGTYYILSDITAFGGIRAAPTGNERCPLTVVQSRNELDKGIGTIISSPYRIRFIAEGHPLSLKFDSFAVIMLCVGIPTEWSVVEDLPEGPAVKIGENKDAMDGWFRLERVSDDEFNNYKLVFCPQQAEDDKCGDIGISIDHDDGTRRLVVSKNKPLVVQFQKLDKESL

What was measured:
[1] = molecular target: T1, human blood coagulation factor Xa (Homo sapiens, UniProt P00742); assay: cell-based or functional assay
Target sequence in this assay (P00742 41-488 limits assumed): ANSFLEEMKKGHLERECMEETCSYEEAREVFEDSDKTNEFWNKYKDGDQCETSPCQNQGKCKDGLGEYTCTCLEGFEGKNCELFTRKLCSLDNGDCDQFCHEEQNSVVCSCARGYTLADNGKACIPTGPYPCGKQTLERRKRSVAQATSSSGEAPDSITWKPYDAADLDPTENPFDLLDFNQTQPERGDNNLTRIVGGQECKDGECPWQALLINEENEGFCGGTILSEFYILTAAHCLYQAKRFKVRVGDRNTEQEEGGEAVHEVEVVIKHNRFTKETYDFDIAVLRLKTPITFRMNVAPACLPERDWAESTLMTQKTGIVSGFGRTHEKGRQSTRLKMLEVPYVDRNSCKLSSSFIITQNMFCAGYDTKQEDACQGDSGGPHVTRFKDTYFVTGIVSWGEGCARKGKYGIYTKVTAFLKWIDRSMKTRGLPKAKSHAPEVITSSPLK

[2] = molecular target: T1, human blood coagulation factor Xa; assay: Inhibition of the serine protease activity of human blood coagulation factor Xa (chromogenic substrate LGR-pNA); type: biochemical; details: 0.3 μM human factor Xa, 15 min at 37° C. preincubation, synthetic substrate LGR-pNA, Tris-HCl buffered saline pH8.0; from V/V0 curves of FIG. 4; read-out: 50% inhibition concentration (IC50) against serine protease activity of factor Xa
Method: Crude venom of Bitis arietans arietans purchased from LATOXAN was dissolved in Tris-HCl buffer (50 mM Tris-HCl pH 8.0) to prepare 2 mL of a crude venom solution (in concentration of 250 mg/mL). The crude venom solution was applied to Superdex 200 pg gel permeation column (φ2.6 cm×L 60 cm) equilibrated with the Tris-HCl buffer (50 mM Tris-HCl pH 8.0) at a flow rate of 2 mL/min. Two mL aliquots of the series of eluted fractions were collected, and each eluted fraction was determined for the presence of inhibitory activity against the serine protease activity of blood coagulation factor Xa. In the assay for inhibitory activity specific to the serine protease activity of blood coagulation factor Xa, a synthetic substrate Boc-leucyl-glycil-L-arginyl-p-nitroanilide hydrochloride was used to determine a concentration of a reaction product formed by truncation at the C-terminal side of an arginine residue by protease activity of blood coagulation factor Xa (Cproduct: concentration of p-nitroaniline), and then from a product concentration without addition of a test substance: Cproduct0 and a product concentration with addition of a test substance: Cproduct, an inhibitory rate was calculated as (Cproduct0−Cproduct)/Cproduct0. […]
Target sequence in this assay (P00742 235-488 limits assumed): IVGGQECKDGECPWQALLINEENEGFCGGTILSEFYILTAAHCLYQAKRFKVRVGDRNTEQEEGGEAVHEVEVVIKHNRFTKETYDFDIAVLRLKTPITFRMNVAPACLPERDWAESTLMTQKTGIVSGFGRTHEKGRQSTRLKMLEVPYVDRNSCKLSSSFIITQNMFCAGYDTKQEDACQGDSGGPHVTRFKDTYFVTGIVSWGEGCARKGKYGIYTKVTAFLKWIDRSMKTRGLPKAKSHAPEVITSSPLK
Target sequence in this assay (P00742 41-179 partner limits assumed): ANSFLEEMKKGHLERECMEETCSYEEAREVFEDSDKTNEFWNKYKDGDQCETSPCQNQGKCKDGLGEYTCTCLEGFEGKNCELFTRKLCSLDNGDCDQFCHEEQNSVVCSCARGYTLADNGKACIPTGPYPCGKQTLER

Molecule	50% inhibition concentration (IC50) of factor Xa protease activity (V/V0), cleavage of synthetic substrate LGR-pNA [1] [M]	IC50 [2] [nM]
SBTI (Soybean Trypsin Inhibitor; MW=20.1 kDa) (from UniProt P01070 25-205)	3e-07	–
B1	–	20
B2	–	300
